We go through four molecules from US20220127354A1 (Amgen, published 2022).

The target in assay [1] is T1, ckCDH19(1-43)::FLAG::ckCDH19(44-468)::huCDH19(464-772) (construct O, Hu EC5) (human/chicken chimera).
T1 construct: leader (1-43 of the entry) left out
T1 chain: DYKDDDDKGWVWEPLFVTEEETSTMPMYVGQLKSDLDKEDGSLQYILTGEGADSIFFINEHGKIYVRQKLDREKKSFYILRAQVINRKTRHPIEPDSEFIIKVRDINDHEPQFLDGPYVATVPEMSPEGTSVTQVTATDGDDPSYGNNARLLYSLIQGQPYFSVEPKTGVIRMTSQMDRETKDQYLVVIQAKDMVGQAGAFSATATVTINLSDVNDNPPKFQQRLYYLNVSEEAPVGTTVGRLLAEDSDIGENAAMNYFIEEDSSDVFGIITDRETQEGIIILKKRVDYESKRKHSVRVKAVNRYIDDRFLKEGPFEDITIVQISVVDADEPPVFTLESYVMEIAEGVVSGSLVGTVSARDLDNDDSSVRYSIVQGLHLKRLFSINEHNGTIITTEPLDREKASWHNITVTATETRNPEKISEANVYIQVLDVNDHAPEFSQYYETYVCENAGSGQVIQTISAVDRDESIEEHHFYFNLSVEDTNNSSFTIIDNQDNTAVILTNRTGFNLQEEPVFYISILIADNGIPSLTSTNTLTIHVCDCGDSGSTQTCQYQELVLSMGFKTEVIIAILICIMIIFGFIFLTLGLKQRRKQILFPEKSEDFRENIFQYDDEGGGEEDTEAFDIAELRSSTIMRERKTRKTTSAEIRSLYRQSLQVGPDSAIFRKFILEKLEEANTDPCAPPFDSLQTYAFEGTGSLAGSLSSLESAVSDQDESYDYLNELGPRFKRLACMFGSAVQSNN
Description: flow cytometry, transfected 293T cells, 2 mM CaCl2. For orientation: In flow cytometry, cells or beads pass a laser one at a time.
Description: (§1) The experiment included assaying a subset of anti-CDH19 antibodies against chicken Cadherin19 to determine suitability for binning on these human/chicken chimeras.
(§2) The following binding assay was completed in presence of 2 mM CaCl₂). […] Cells were then washed one time and the amount of cell associated Alexa647-labelled Ab was quantitated by flow cytometry. The experiments included mock transfected controls.

The target in assay [2] is T2, huCDH19(1-43)::FLAG::hu(44-141)::ckCDH19(142-776) (construct K, Hu EC1) (human/chicken chimera).
T2 construct: leader (1-43 of the entry) left out; also called huCDH19(44-141)::ckCDH19(142-776)
Description: flow cytometry, transfected 293T cells, 2 mM CaCl2.
Description: as §1, §2

For assay [3], the target named is T3, ckCDH19(1-43)::FLAG::ckCDH19(44-776) (construct J, Ck EC1-5) (chicken).
T3 construct: the entry holds leader (1-43), FLAG and ckCDH19(44-776); leader left out; also called chicken Cadherin19
T3 chain: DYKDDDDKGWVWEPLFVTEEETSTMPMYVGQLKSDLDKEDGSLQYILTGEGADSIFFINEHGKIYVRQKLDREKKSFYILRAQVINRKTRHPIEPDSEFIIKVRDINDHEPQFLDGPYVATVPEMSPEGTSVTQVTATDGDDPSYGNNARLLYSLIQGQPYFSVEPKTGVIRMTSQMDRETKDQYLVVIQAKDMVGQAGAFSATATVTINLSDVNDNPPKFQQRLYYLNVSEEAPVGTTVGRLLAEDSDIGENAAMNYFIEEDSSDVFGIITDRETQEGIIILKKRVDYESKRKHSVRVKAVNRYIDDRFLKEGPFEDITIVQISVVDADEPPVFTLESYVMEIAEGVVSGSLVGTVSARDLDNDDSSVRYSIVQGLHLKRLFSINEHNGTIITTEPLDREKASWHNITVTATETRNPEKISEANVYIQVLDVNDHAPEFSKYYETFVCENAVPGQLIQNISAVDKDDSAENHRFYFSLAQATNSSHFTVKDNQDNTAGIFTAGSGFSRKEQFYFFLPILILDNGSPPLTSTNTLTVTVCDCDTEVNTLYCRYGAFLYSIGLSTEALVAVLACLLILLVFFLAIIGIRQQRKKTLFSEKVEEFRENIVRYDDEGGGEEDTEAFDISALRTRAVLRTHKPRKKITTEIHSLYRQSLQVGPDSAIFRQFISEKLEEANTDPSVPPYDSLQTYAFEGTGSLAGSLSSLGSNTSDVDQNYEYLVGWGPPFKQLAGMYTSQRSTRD
Description: flow cytometry, transfected 293T cells, 2 mM CaCl2.
Description: as §1, §2

The target of assay [4] is T4, ckCDH19(1-43)::FLAG::ckCDH19(44-141)::huCDH19(142-249)::ckCDH19(250-776) (construct L, Hu EC2) (human/chicken chimera).
T4 construct: leader (1-43 of the entry) left out
T4 chain: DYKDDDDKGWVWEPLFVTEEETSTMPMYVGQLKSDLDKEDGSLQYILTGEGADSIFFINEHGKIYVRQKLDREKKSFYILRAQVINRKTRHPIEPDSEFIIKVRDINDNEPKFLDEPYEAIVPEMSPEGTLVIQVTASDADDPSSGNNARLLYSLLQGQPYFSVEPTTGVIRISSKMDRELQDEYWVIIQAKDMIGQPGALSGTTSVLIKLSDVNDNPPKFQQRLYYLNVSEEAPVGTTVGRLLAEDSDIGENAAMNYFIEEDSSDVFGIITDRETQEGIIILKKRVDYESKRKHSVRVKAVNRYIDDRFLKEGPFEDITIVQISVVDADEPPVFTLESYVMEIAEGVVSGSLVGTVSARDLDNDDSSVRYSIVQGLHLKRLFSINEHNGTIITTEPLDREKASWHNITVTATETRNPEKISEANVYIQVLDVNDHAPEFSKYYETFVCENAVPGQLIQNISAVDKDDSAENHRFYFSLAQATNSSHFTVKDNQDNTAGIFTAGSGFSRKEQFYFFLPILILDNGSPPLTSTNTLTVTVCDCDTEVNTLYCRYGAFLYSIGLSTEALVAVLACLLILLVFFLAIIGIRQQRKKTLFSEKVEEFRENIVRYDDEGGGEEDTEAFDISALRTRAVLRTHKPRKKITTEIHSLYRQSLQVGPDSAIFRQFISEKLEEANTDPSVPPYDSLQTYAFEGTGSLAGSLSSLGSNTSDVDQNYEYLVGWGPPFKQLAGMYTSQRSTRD
Put plainly: flow cytometry, transfected 293T cells, 2 mM CaCl2.
Description: as §1, §2

The target in assay [5] is T5, muCDH19(44-770) with Flag tag (construct I, Mu EC1-5) (mouse).
T5 construct: leader left out; the entry starts at residue 44; also called Mo EC1-5; mouse Cadherin19
T5 chain: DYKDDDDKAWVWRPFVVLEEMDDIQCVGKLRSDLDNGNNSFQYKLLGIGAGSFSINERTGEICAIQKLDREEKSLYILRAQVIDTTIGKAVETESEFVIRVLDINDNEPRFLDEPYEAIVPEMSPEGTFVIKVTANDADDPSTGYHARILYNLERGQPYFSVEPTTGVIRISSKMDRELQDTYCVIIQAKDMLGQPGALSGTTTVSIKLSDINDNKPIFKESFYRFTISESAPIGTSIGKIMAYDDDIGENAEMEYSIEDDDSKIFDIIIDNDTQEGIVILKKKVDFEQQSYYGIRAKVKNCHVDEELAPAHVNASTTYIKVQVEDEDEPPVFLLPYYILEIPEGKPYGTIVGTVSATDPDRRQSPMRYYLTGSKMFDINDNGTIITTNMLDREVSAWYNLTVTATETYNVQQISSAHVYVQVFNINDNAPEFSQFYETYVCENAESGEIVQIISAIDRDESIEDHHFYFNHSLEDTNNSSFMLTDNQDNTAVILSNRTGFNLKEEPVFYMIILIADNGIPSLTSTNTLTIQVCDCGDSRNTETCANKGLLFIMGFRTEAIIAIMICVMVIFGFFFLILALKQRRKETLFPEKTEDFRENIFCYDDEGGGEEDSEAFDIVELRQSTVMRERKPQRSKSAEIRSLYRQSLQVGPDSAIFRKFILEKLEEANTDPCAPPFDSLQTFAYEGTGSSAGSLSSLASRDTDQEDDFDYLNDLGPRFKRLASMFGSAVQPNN
Description: flow cytometry, transfected 293T cells, 2 mM CaCl2.
Description: as §2

For assay [6], the target named is T6, muCDH19(44-247)::huCDH19(250-364)::muCDH19(363-770) with Flag tag (construct F, Hu EC3) (human/mouse chimera).
T6 construct: leader left out; the entry starts at residue 44; also called C137911
Put plainly: flow cytometry, transfected 293T cells.
Description: (§3) The experiment included assaying the anti-CDH19 antibodies against mouse Cadherin19 to determine suitability for binning on these human/mouse chimeras.

Assay [7] deals with T7, muCDH19(44-139)::huCDH19(142-364)::muCDH19(363-770) with Flag tag (construct E, Hu EC2-3) (human/mouse chimera).
T7 construct: leader left out; the entry starts at residue 44; also called C137847
Description: flow cytometry, transfected 293T cells.
Description: as §3

The target in assay [8] is huCDH19(44-772) with Flag tag (construct A, Hu EC1-5) (human, UniProt Q9H159 44-772). Description: flow cytometry, transfected 293T cells.
Description: as §3

B1: hu anti-<huCDH19> 17H8.2 (Ab ID 13874) (antibody, human IgG1, kappa, V domains shown)
VH: QVQLQESGPGLVKPSETLSLTCTVSGGSINSYYWSWIRQPPGKGLEWIGYIYYIGSTNYNPSLKSRVTISVDTSKNQFSLKLSSVTAADTALYYCARDSRYRSGWYDAFDIWGQGTMVTVSS
VL: DIVLTQSPGTLSLSPGERATLSCRASQSVAGSYLAWYQQKPGQAPRLLISGASSRATGIPDRFSGSGSGTDFTLTISRLEPEDFAVYYCQQYGKSPITFGQGTRLEMKG
notes: huIgG1z / huKLC; Bin 3; also called 23B6; 28D10
For B1, the binding result in assay [1] is “no binding (tested: 5 ug/ml)”; in assay [2] it was “binds”; in assay [3], “no binding (tested: 5 ug/ml)”; in assay [4], “no binding (tested: 5 ug/ml)”.

B2: hu anti-<huCDH19> 26F12.1 (Ab ID 13881) (antibody, human IgG1, lambda, V domains shown)
VH: QVQLVQSGAEVKKPGASVKVSCKASRYTFTNYYMSWVRQAPGQGLEWMGIINPSGGDSTYAQKFQGRLTMTGDTSTSTVYMELSSLRSEDTAVYYCARGGIQLWLHFDYWGQGTLVTVSS
VL: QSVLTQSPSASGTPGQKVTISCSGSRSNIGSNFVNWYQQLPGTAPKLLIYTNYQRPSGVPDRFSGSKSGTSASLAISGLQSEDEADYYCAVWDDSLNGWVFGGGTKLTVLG
notes: huIgG1z / huLLC-C2; Bin 2; also called 27B3
For B2, the binding result in assay [1] is given as “no binding (tested: 5 ug/ml)”; in assay [2], “binds”; in assay [3], “no binding (tested: 5 ug/ml)”; in assay [4] it was “no binding (tested: 5 ug/ml)”; in assay [5], “no binding (tested: 5 ug/ml)”.

B3: hu anti-<huCDH19> 4A2 (1-472)(Q17E,H47P) VH::huIgG1z + 4A2 (1-236)(N30Q,T102A) VL::huKLC (Ab ID 14026) (antibody, V domains shown)
VH: QVQLQESGPGLVKPSETLSLTCTVSGGSISSSGYYWSWIRQPPGKGLEWIGYIYYTGSAYYNPSLKSRVTISVDTSKNQFSLKLSSVTAADTAVYYCARDGSSGWYFQYWGQGTLVTVSS
VL: EIVLTQSPGTLSLSPGERATLSCRASRQISSSYLAWYQQKPGQAPRLLIYGPSSRATGIPDRFSGSGSGTDFTLTISRLEPEDFAVYYCQQYGSSFTFGPGTKVDIKR
notes: Engineered variant of 4A2; the entries already carry the changes; Bin 4
As for B3, the binding result in assay [6], in assay [7] and in assay [8] was “binds” in each case.

B4: hu anti-<huCDH19> 4B10 (1-471)(R17G) VH::huIgG1z + 4B10 (1-236)(H45Q,A90T) VL::huKLC (Ab ID 14054) (antibody, V domains shown)
VH: QVQLVESGGGVVQPGGSLRLSCAASGFTFSSYDMHWVRQAPGKGLEWVAVISYDGTNEYYADSVKGRFTISRDTSKNTLYLQMNSLRAEDTAVYYCARERYFDWSFDYWGQGTLVSVSS
VL: EIVLTQSPGTLSLSPGERATLSCRASQSVSNTYLAWYQQRPGQAPRLLIYGASSRATGIPDRFSGSGSGTDFTLTISSLEPEDFAVYYCQQYSNSWTFGQGTKVEIKR
notes: Engineered variant of 4B10; the entries already carry the changes; Bin 4
On to B4, for which the binding result in assay [6], in assay [7] and in assay [8] was “binds” each time.
